Experimental data from PMC10761769, “Allosteric control of dynamin-related protein 1 through a disordered C-terminal Short Linear Motif” (Nature Communications, 2024).
Values joined by “and” are separate entries in the source; they are usually repeats but may differ in a detail not shown here. Equal entries are not always repeated.

B1: human dynamin-related protein 1 (Drp1) isoform 3, wild type, N-terminal His6 tag (enzyme, UniProt O00429-4 1-699, looked up)
chain: MEALIPVINKLQDVFNTVGADIIQLPQIVVVGTQSSGKSSVLESLVGRDLLPRGTGIVTRRPLILQLVHVSQEDKRKTTGEENGVEAEEWGKFLHTKNKLYTDFDEIRQEIENETERISGNNKGVSPEPIHLKIFSPNVVNLTLVDLPGMTKVPVGDQPKDIELQIRELILRFISNPNSIILAVTAANTDMATSEALKISREVDPDGRRTLAVITKLDLMDAGTDAMDVLMGRVIPVKLGIIGVVNRSQLDINNKKSVTDSIRDEYAFLQKKYPSLANRNGTKYLARTLNRLLMHHIRDCLPELKTRINVLAAQYQSLLNSYGEPVDDKSATLLQLITKFATEYCNTIEGTAKYIETSELCGGARICYIFHETFGRTLESVDPLGGLNTIDILTAIRNATGPRPALFVPEVSFELLVKRQIKRLEEPSLRCVELVHEEMQRIIQHCSNYSTQELLRFPKLHDAIVEVVTCLLRKRLPVTNEMVHNLVAIELAYINTKHPDFADACGLMNNNIEEQRRNRLARELPSAVSRDKVASGGGGVGDGVQEPTTGNWRGMLKTSKAEELLAEEKSKPIPIMPASPQKGHAVNLLDVPVPVARKLSAREQRDCEVIERLIKSYFLIVRKNIQDSVPKAVMHFLVNHVKDTLQSELVGQLYKSSLLDDLLTESEDMAQRRKEAADMLKALQGASQIIAEIRETHLW
notes: dynamin-related protein 1 (Drp1), human, isoform 3, 699 residues, ends in the CT-SLiM R694-W699 (RETHLW); numbers count on: isoform 3 (699 residues); also called WT Drp1; WT
B2: mouse GIPC-1 (GAIP interacting protein, C-terminus 1), full length (natural protein, UniProt Q9Z0G0 1-333, looked up)
chain: MPLGLGRRKKAPPLVENEEAEPSRSGLGVGEPGPLGGSAAGESQMGLPPPPAALRPRLVFHTQLAHGSPTGRIEGFTNVKELYGKIAEAFRLPAAEVMFCTLNTHKVDMDKLLGGQIGLEDFIFAHVKGQRKEVEVFKSEEALGLTITDNGAGYAFIKRIKEGSVIDHIQLISVGDMIEAINGQSLLGCRHYEVARLLKELPRGRTFTLKLTEPRKAFDMISQRSAGGHPGSGPQLGTGRGTLRLRSRGPATVEDLPSAFEEKAIEKVDDLLESYMGIRDTELAATMVELGKDKRNPDELAEALDERLGDFAFPDEFVFDVWGAIGDAKVGRY
notes: GIPC-1, mouse, full length; also called full-length GIPC-1; source: subcloned in pGEX-6P1, expressed and purified using standard protocols; GST removed by HRV3C; not shown: GST, N-terminal, cleaved
B3: human Drp1 isoform 3 ΔCT4 (last four residues of the CT-SLiM removed) (enzyme, UniProt O00429-4 1-695, looked up)
chain: MEALIPVINKLQDVFNTVGADIIQLPQIVVVGTQSSGKSSVLESLVGRDLLPRGTGIVTRRPLILQLVHVSQEDKRKTTGEENGVEAEEWGKFLHTKNKLYTDFDEIRQEIENETERISGNNKGVSPEPIHLKIFSPNVVNLTLVDLPGMTKVPVGDQPKDIELQIRELILRFISNPNSIILAVTAANTDMATSEALKISREVDPDGRRTLAVITKLDLMDAGTDAMDVLMGRVIPVKLGIIGVVNRSQLDINNKKSVTDSIRDEYAFLQKKYPSLANRNGTKYLARTLNRLLMHHIRDCLPELKTRINVLAAQYQSLLNSYGEPVDDKSATLLQLITKFATEYCNTIEGTAKYIETSELCGGARICYIFHETFGRTLESVDPLGGLNTIDILTAIRNATGPRPALFVPEVSFELLVKRQIKRLEEPSLRCVELVHEEMQRIIQHCSNYSTQELLRFPKLHDAIVEVVTCLLRKRLPVTNEMVHNLVAIELAYINTKHPDFADACGLMNNNIEEQRRNRLARELPSAVSRDKVASGGGGVGDGVQEPTTGNWRGMLKTSKAEELLAEEKSKPIPIMPASPQKGHAVNLLDVPVPVARKLSAREQRDCEVIERLIKSYFLIVRKNIQDSVPKAVMHFLVNHVKDTLQSELVGQLYKSSLLDDLLTESEDMAQRRKEAADMLKALQGASQIIAEIRE
notes: Drp1, human, isoform 3, without the last four residues (T696-W699) of the 699; numbers count on: isoform 3 (699 residues); Limits worked out from 'the last four residues removed' and W699 as the last residue; also called ΔCT4 Drp1; ΔCT4 variant
B4: human Drp1 isoform 3 ΔCT6 (last six residues, the whole CT-SLiM, removed) (enzyme, UniProt O00429-4 1-693, looked up)
chain: MEALIPVINKLQDVFNTVGADIIQLPQIVVVGTQSSGKSSVLESLVGRDLLPRGTGIVTRRPLILQLVHVSQEDKRKTTGEENGVEAEEWGKFLHTKNKLYTDFDEIRQEIENETERISGNNKGVSPEPIHLKIFSPNVVNLTLVDLPGMTKVPVGDQPKDIELQIRELILRFISNPNSIILAVTAANTDMATSEALKISREVDPDGRRTLAVITKLDLMDAGTDAMDVLMGRVIPVKLGIIGVVNRSQLDINNKKSVTDSIRDEYAFLQKKYPSLANRNGTKYLARTLNRLLMHHIRDCLPELKTRINVLAAQYQSLLNSYGEPVDDKSATLLQLITKFATEYCNTIEGTAKYIETSELCGGARICYIFHETFGRTLESVDPLGGLNTIDILTAIRNATGPRPALFVPEVSFELLVKRQIKRLEEPSLRCVELVHEEMQRIIQHCSNYSTQELLRFPKLHDAIVEVVTCLLRKRLPVTNEMVHNLVAIELAYINTKHPDFADACGLMNNNIEEQRRNRLARELPSAVSRDKVASGGGGVGDGVQEPTTGNWRGMLKTSKAEELLAEEKSKPIPIMPASPQKGHAVNLLDVPVPVARKLSAREQRDCEVIERLIKSYFLIVRKNIQDSVPKAVMHFLVNHVKDTLQSELVGQLYKSSLLDDLLTESEDMAQRRKEAADMLKALQGASQIIAEI
notes: Drp1, human, isoform 3, without the last six residues (R694-W699) of the 699; numbers count on: isoform 3 (699 residues); Limits worked out from 'the last six residues removed' and W699 as the last residue; also called ΔCT6 Drp1; ΔCT6 variant

Assays:
R403A Drp1 = R403A Drp1 (UniProt O00429); assay: not stated; R403A Drp1 in solution (Supplementary Fig. 4a); the same protein was used as a dimer for SEC-SAXS at ~34 uM in buffer A with 1 mM DTT
[1] = molecular target: the molecule itself; assay: SEC-MALS; Drp1 in the nucleotide-free apo state, Superose 6 10/300 GL; injected at 5 uM, ~0.5 uM at peak detection; other injection concentrations in the supplement
[2] = molecular target: the molecule itself; assay: SEC-MALS; full-length GIPC-1, unliganded, 10 uM at injection, Superdex 200 10/300 GL
[3] = molecular target: human dynamin-related protein 1 (Drp1) isoform 3, wild type, N-terminal His6 tag (human) (UniProt O00429)
[4] = molecular target: the molecule itself; assay: negative-stain EM; 2D class averages of single particles, Drp1 at 2 uM, apo state

Molecule | stoichiometry N [1] | stoichiometry N [4] | further results
R403A Drp1 (from UniProt O00429-4 1-699) (enzyme) |  |  | stoichiometry N (R403A Drp1): 2
B1 | 2 and 4 |  | 
B2 |  |  | stoichiometry N [2]: 2; fission of free-standing lipid nanotubes by WT Drp1 with GIPC-1 at 1:1 (0.5 uM each), 1 mM GTP [3]: > 30%
B3 | 4 | 2 | 
B4 | 4 | 2 | 
